# Assay results from PMC5845983.
# What was measured:
# [1] = target: CR1 CCP22-30 (Homo sapiens) (UniProt P17927); experiment: SPR; conditions: cited from earlier work
# [2] = target: CR1 soluble CR1 (Homo sapiens) (UniProt P17927); experiment: SPR; conditions: cited from earlier work
# [3] = target: CR1 bimodular fragment CCP24-25 His6 (human); experiment: SPR; BIAcore 3000, multiple cycle; CCP24-25 amine-coupled on CM5 (1,000 RU); MBL injected at 20 µl/min in buffer with 3 mM EDTA (methods: HBS-P; legend of Figure 4: 50 mM TEA, 145 mM NaCl, 0.05% P20, pH 7.4); global 1:1 Langmuir fit; apparent KD = kd/ka
# Chain of MBL (P11226 21-248): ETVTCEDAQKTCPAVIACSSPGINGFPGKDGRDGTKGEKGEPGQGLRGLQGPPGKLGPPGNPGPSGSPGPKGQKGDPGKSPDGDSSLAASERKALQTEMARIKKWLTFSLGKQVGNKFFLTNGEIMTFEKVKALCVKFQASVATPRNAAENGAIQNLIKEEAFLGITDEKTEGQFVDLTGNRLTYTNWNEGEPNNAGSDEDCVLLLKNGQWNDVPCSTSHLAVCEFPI
Kd [3] [nM],koff [3] [s⁻¹],Substance,Kd [1] [nM],Kd [2] [nM]
,,MBL (from UniProt P11226),0.37,0.76
0.65,0.00109,Recombinant mannose-binding lectin (MBL) (from UniProt P11226 21-248) (natural protein),,
